This series in a line: soluble on expression in E. coli; label from the status in PepcDB or PDB records.
With “MDAWKEITKTTENDGVSTCSLSSIAFDPYSELVWTGHKNGQIKSSFGPSLTSYTQFIGHEGPVHQVLPQERGVFSLSSKSLRLSNRKGTIRWRYHSVPCVQRSMIILYSCFLCSKHAVLISRDSDCIDYRAMFYQSRNNPEVVIGGYHQKLTVVNAERGISIHKDKNVSDIFIMRRNRLLCCGSTNGEIILRDPNSFQPVNKVVAHTGTISDIDTSGNLLLSCGYSLRHGTYMLDPFVKVWDLRNLSSLVPIPFPAGPTIIRMHPKLSTTAVVCSCSGQFHIVDTGNPLDAKLMQIPLTSYLTGMDIASTGDAMVFTDVEDNIHLWSPLENPSFSDLKLPIQLPNTSTETVQLENNDPLNSIGLPYYKDELLSSWSKYLIFDVGKPILDSNLLIAKQISENSHPVPQEIKSFHRNQIIEVPWLNRKLISEGATPKFHSERQKDIMSGNDIEGSASYFEEIEDTISGPDSIPKFYQRPVIKYSKFGIEDFDFGFYNKTKYAGLETDITNSYCNSVLQLLSYVPSFSKAAISHSLGPCDLMECLLCELGFLFAMLKESTGRNCQATNFLRAFSNSSFAQSLGIVFDDYSDGTFPDSFVIQKFTKFMLTEISRIADYEDKKDGTSFPVSFLLKSFCIPEMQTYRCGICGITSQKIKSSLYIIDLHYPSQQLESILSFEWLFKMSLDRRVDLPPGWCEYCLAHQPFLLRSFIRSLPDCLFINTQVKHHEHWKLWARKNWLPKKLHLRRVNDTMQCVSQKISNLDKDQQSLSVYVLRGIIYEIRQNGEEPHFVSTIRVSDNTSSDNPDDNRWYIFNDFLVKEVTEEEALTVHGPWKIPIIVYYEKLDTKIPQWDEVSDYTLLYQPYSLNKNPPINKIQPLTTDEMLYPKMLVGIDSEFVALQQEETEVRSDGTKSTIKPSKLSLARVSVLRGEGPNKGLPFIDDYVATDDKVTDYLTEYSGIHPGDLDPDRSPYNVVPLKVAYKKLRLLVNAGCIFVGHGLQKDFRIINLLVPPEQVVDTVDLFFLSSRQRKLSLKFLAWYLLDEEIQLTEHDSIEDALTALKLYDCYDKLKSQGKLEETLDNIYEVGRRFKFRPPSVASMSLEDRNSYGDESVISNQTN”, the “soluble on expression in E. coli” value is “soluble”.

Regarding “MQDLLTLRFLDTYDNILFIGNSGVGKTHLAVSIGLECIDRGLSCLFITSTELVNRLIRAHKRGTSETMLKKYSGYSVLIIDEVGYLPFSKEGSNLLFQLINMRYERKSTIVTTNIPLSQWSEIFGNKKLTNALLDRLVHHSKLIQITGPSYRMKSYSENKEVKSLEHHHHHH”, the “soluble on expression in E. coli” value is reported as “soluble”.

On to “GMIEKVYEFKRDAKTKVVEKLVNTEHVQINHIVLPRGEQMPKHYSNSYVHLIIIKGEMTLTLEDQEPHNYKEGNIVYVPFNVKMLIQNINSDILEFFVVKAPHPKKLNAPEDPIKCE”, for which the “soluble on expression in E. coli” value is recorded as “soluble”. As for “GPGSMADVADPSSELINELRALVVSGSGLVPLDERKVHTVVENMTDAFRHLESISRNPFADPSQPYYSGAMRFYKAKCLRDKRCVVAYLLWRQSQITKSWWEARDNTISNMLAPCERTFLQDYNDVMVEYMTSFAVPLDLRSFTWRPPSTQQLEVRGLVNHVFVSSITGAVINLYKGKQILLGFEEAESLIQQGVVELVE”, the entry is “not soluble”; as for “MSLSHIRPDFPEPYGLPVDGLRGKTSIFSHPVYLFLREFSLQDSRGGSLSKKAESLSSGKITIGTKEKVIIINELRQCHPLSQLLVIADLPRSTFYYHVKRLNAPDPYQLVKQVILRIYHQHKGRYGYRRIRLACRNESILLNGKTIRKLMKELGISSLIRRKKYRTYRGEQGRTCNNLLKRQFYADRPNQKWVTDVTEFKVDGRKLYLSPIMDLYNGEIVSYNLTERPLASMVKSMLLDAVEQLNKDDKPLLHSDQGWQYQMPRWQRWLSDNGITQSMSRRGNCLDNAAMESFFSTLKEGHHHHHH”, “not soluble”; as for “MKRCDLHIHTVPSVSDREFTYDKEILSDYVAKTKLDVIAITNHNLFDYAQFQEIKDILPQIVVLPGIEVDLEDGHILVIANNDDRTLFDFNSKCEEIKNLIKSEADNITYDRFVGIFGDLSKYLLIPHYEKEPKLRKDILEKLGRNIIAGEVSSVKKFIYMEKERAGLTPVYFSDFRIEKGITPDKYPVSHTFFDVDEVNIKTLKLCLMDKTKVSLTSEEGIKLFPIFPNGQKLSTGLNIMYGKRSTGKTFTLDAIASRFNGKAKYIKQFELLNTNRNDSEQFESDMKVRQEESAENYLREFSDVVTDMLKTCSSDEDDIKLQKYLDAVKSSAQQSNVNDVFSKSKLFNESDFKERSCDEIKELINATQTLLESQLYKKIINKHLSEISLKALLKDLIELYLEGNAANQYVKEVNNMIKMVKESLQLKSAAPRIPDIDLYQYFINKKKREVFAQIAMSVKKSRTISTEKAGHFTVSVSARPFMNATDLKTVRLTQVSLTNAFKKYENPVQYLNELKAAGVEINRIYKLFAAIDYKILNSSGLPVSGGERSEFNFLQKIKDAILCDILIIDEPESSFDNIFLKNEVNKFIKEMAENMPVIISTHNNTIGSSIKPDYILYTEKKMEADGAHFKIYSGYPTAKELRDVDGNTIENYEITLNSLEAGEQAYSERKDIYETLKN”, “not soluble”. Regarding “MSLKKSFLLLPLSLVVLSACTSNFPAPISDADGNFSPSVIQSVNGSNVGGAWQPEIQKNSLPTTGNMVTPQQNFQPINQQPTMPTAPAQPAFQPSPKTVVSAPTVQTKTVTKTVADCVDGQHINIPRNPNTNAPDYSKISKGSYKGNTYKVNKGDTMFLIAYLAGIDVKELAALNNLSEPYNLSLGQVLKISNCDIKTVTTTVSVKQPAVTASTATPVKPAVTYTPGANGTQIGSDGTIIGPIKSEAGTSPSVPVATSSTQVTSSVNNANSTPINSNVVAPIASNVVWQWPTSGNIIQGFSSTDGGNKGIDISGSRGQAVKAAAAGRIVYAGNALRGYGNLIIIKHNDDFLSAYAHNDKILVADQQEVKAGQDIAKMGSSGTNTVKLHFEIRYKGKSVDPVRYLPRHEGHHHHHH”, the “soluble on expression in E. coli” value was “not soluble”. Consider “MGSDKIHHHHHHMKIALIATEKLPVPSVRGGAIQIYLEAVAPLIAKKHEVTVFSIKDPNLADREKVDGVHYVHLDEDRYEEAVGAELKKSRFDLVHVCNRPSWVPKLKKQAPDAVFILSVHNEMFAYDKISQAEGEICIDSVAQIVTVSDYIGQTITSRFPSARSKTKTVYSGVDLKTYHPRWTNEGQRAREEMRSELGLHGKKIVLFVGRLSKVKGPHILLQALPDIIEEHPDVMMVFIGSKWFGDNELNNYVKHLHTLGAMQKDHVTFIQFVKPKDIPRLYTMSDVFVCSSQWQEPLARVHYEAMAAGLPIITSNRGGNPEVIEEGKNGYIIHDFENPKQYAERINDLLSSSEKRERLGKYSRREAESNFGWQRVAENLLSVYEKNR”, for which the “soluble on expression in E. coli” value was “not soluble”. As for “MGSDKIHHHHHHMKYEIVLKGSYALLKVFLSTGESVVVEPGAMVYMKGPIEVKTSATGGVWKALKRAILGGENFFMNTYISRGESEIGLAPQLPGDIDVIPLKDILYVQSTSFLACDPSVEMDVSFGGLKSFFSGEGIFLLKFIGHGDVAVSSFGGIKSVELQPGEEFTVDTGHVVAFDGTVKWNVRTFGGLKSTLFGGEGLVCTFTGPGRVYIQTRNYPAFVEWIKSLVPRQTGSR”, the entry is “not soluble”; as for “MSLVEAISLWNEGVLAADKKDWKGALDAFSAVQDPHSRICFNIGCMYTILKNMTEAEKAFTRSINRDKHLAVAYFQRGMLYYQTEKYDLAIKDLKEALIQLRGNQLIDYKILGLQFKLFACEVLYNIAFMYAKKEEWKKAEEQLALATSMKSEPRHSKIDKAMECVWKQKLYEPVVIPVGKLFRPNERQVAQLAKKDYLGKATVVASVVDQDSFSGFAPLQPQAAEPPPRPKTPEIFRALEGEAHRVLFGFVPETKEELQVMPGNIVFVLKKGNDNWATVMFNGQKGLVPCNYLEPVELRIHPQQQPQEESSPQSDIPAPPSSKAPGRPQLSPGQKQKEEPKEVKLSVPMPYTLKVHYKYTVVMKTQPGLPYSQVRDMVSKKLELRLEHTKLSYRPRDSNELVPLSEDSMKDAWGQVKNYCLTLWCENTVGDQGFPDEPKESEKADANNQTTEPQLKKGSQVEALFSYEATQPEDLEFQEGDIILVLSKVNEEWLEGECKGKVGIFPKVFVEDCATTDLESTRREV”, “soluble”; as for “MAQKISINRGLGLGMAQLGAFARMGMMINVSAMGPQDGHANGGVGEGGIEMSRKSTWRSENDEIKTRKSTAFEPDLDFDMIDFRQPSGSSQYLYGFGFDNNAFGLADGQSDEDSVFM”, “not soluble”.

For the origin of these results see the DeepSol protein solubility set.
